According to US20030118612A1 (MAXYGEN, published 2003):

T1: human G-CSF receptor (human, UniProt Q99062 25-836)
T1 sequence (looked up): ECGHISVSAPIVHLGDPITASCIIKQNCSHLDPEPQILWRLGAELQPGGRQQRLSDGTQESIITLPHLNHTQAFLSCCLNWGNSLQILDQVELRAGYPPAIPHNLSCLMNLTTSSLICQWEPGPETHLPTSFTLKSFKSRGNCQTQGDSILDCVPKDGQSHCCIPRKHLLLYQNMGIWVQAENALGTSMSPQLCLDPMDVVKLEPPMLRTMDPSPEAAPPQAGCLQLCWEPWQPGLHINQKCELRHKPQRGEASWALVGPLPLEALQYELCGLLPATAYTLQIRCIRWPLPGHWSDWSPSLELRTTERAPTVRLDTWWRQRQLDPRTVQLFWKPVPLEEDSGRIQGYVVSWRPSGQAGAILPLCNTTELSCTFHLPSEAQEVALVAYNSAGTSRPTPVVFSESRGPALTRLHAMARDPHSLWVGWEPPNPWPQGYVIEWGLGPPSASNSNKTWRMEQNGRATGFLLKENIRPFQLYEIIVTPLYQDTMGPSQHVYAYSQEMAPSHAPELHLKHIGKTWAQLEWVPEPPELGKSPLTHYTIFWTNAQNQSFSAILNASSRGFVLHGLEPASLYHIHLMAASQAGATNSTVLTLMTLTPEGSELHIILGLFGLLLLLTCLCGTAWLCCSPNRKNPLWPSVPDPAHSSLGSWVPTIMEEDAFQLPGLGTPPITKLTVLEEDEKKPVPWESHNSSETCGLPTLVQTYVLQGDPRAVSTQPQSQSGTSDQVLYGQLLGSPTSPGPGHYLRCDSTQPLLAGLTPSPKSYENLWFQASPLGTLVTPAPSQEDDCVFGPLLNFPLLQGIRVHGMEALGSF


Target: T1, human G-CSF receptor
Assay: cell-based or functional assay

| EC50 (% of hG-CSF) conjugated to SPA-PEG 12000 | EC50(% of hG-CSF) conjugated to SPA-PEG 20000 | Binder |
| --- | --- | --- |
| 10 % of hG-CSF |  | G-CSF variant K16/34/40R conjugated to SPA-PEG 12000 (ligand, conjugated to SPA-PEG 12000) TPLGPASSLPQSFLLRCLEQVRKIQGDGAALQERLCATYRLCHPEELVLLGHSLGIPWAPLSSCPSQALQLAGCLSQLHSGLFLYQGLLQALEGISPELGPTLDTLQLDVADFATTIWQQMEELGMAPALQPTQGAMPAFASAFQRRAGGVLVASHLQSFLEVSYRVLRHLAQP |
|  | 7 % of hG-CSF | G-CSF variant K16/34/40R Q90K conjugated to SPA-PEG 20000 (ligand, conjugated to SPA-PEG 20000) TPLGPASSLPQSFLLRCLEQVRKIQGDGAALQERLCATYRLCHPEELVLLGHSLGIPWAPLSSCPSQALQLAGCLSQLHSGLFLYQGLLKALEGISPELGPTLDTLQLDVADFATTIWQQMEELGMAPALQPTQGAMPAFASAFQRRAGGVLVASHLQSFLEVSYRVLRHLAQP |
|  | < 1 % of hG-CSF | G-CSF variant K16/34/40R Q90K T105K conjugated to SPA-PEG 20000 (ligand, conjugated to SPA-PEG 20000) TPLGPASSLPQSFLLRCLEQVRKIQGDGAALQERLCATYRLCHPEELVLLGHSLGIPWAPLSSCPSQALQLAGCLSQLHSGLFLYQGLLKALEGISPELGPTLDKLQLDVADFATTIWQQMEELGMAPALQPTQGAMPAFASAFQRRAGGVLVASHLQSFLEVSYRVLRHLAQP |
| 1 % of hG-CSF |  | G-CSF variant K16/34/40R Q90K T105K S159K conjugated to SPA-PEG 12000 (ligand, conjugated to SPA-PEG 12000) TPLGPASSLPQSFLLRCLEQVRKIQGDGAALQERLCATYRLCHPEELVLLGHSLGIPWAPLSSCPSQALQLAGCLSQLHSGLFLYQGLLKALEGISPELGPTLDKLQLDVADFATTIWQQMEELGMAPALQPTQGAMPAFASAFQRRAGGVLVASHLQKFLEVSYRVLRHLAQP |
| 6 % of hG-CSF |  | G-CSF variant K16/34/40R T105K S159K conjugated to SPA-PEG 12000 (ligand, conjugated to SPA-PEG 12000) TPLGPASSLPQSFLLRCLEQVRKIQGDGAALQERLCATYRLCHPEELVLLGHSLGIPWAPLSSCPSQALQLAGCLSQLHSGLFLYQGLLQALEGISPELGPTLDKLQLDVADFATTIWQQMEELGMAPALQPTQGAMPAFASAFQRRAGGVLVASHLQKFLEVSYRVLRHLAQP |
|  | 5 % of hG-CSF | G-CSF variant K16/34/40R T105K S159K conjugated to SPA-PEG 20000 (ligand, conjugated to SPA-PEG 20000) TPLGPASSLPQSFLLRCLEQVRKIQGDGAALQERLCATYRLCHPEELVLLGHSLGIPWAPLSSCPSQALQLAGCLSQLHSGLFLYQGLLQALEGISPELGPTLDKLQLDVADFATTIWQQMEELGMAPALQPTQGAMPAFASAFQRRAGGVLVASHLQKFLEVSYRVLRHLAQP |
| 1 % of hG-CSF |  | G-CSF variant K16/34/40R Q90K T105K conjugated to SPA-PEG 12000 (ligand, conjugated to SPA-PEG 12000) TPLGPASSLPQSFLLRCLEQVRKIQGDGAALQERLCATYRLCHPEELVLLGHSLGIPWAPLSSCPSQALQLAGCLSQLHSGLFLYQGLLKALEGISPELGPTLDKLQLDVADFATTIWQQMEELGMAPALQPTQGAMPAFASAFQRRAGGVLVASHLQSFLEVSYRVLRHLAQP |
|  | < 1 % of hG-CSF | G-CSF variant K16/34/40R Q90K T105K S159K conjugated to SPA-PEG 20000 (ligand, conjugated to SPA-PEG 20000) TPLGPASSLPQSFLLRCLEQVRKIQGDGAALQERLCATYRLCHPEELVLLGHSLGIPWAPLSSCPSQALQLAGCLSQLHSGLFLYQGLLKALEGISPELGPTLDKLQLDVADFATTIWQQMEELGMAPALQPTQGAMPAFASAFQRRAGGVLVASHLQKFLEVSYRVLRHLAQP |
| 8 % of hG-CSF |  | G-CSF variant K16/34/40R Q70K Q90K conjugated to SPA-PEG 12000 (ligand, conjugated to SPA-PEG 12000) TPLGPASSLPQSFLLRCLEQVRKIQGDGAALQERLCATYRLCHPEELVLLGHSLGIPWAPLSSCPSQALKLAGCLSQLHSGLFLYQGLLKALEGISPELGPTLDTLQLDVADFATTIWQQMEELGMAPALQPTQGAMPAFASAFQRRAGGVLVASHLQSFLEVSYRVLRHLAQP |
|  | 1 % of hG-CSF | G-CSF variant K16/34/40R conjugated to SPA-PEG 20000 (ligand, conjugated to SPA-PEG 20000) TPLGPASSLPQSFLLRCLEQVRKIQGDGAALQERLCATYRLCHPEELVLLGHSLGIPWAPLSSCPSQALQLAGCLSQLHSGLFLYQGLLQALEGISPELGPTLDTLQLDVADFATTIWQQMEELGMAPALQPTQGAMPAFASAFQRRAGGVLVASHLQSFLEVSYRVLRHLAQP |

Target: T1, human G-CSF receptor
Assay: cell-based or functional assay
Remark: another data set of the same source

| EC50 (% of hG-CSF) non-conjugated | EC50 (% of hG-CSF) conjugated to SPA-PEG 5000 | Binder |
| --- | --- | --- |
| 10 % of hG-CSF |  | G-CSF variant K16/34/40R Q70K Q90K T105K, non-conjugated (ligand) TPLGPASSLPQSFLLRCLEQVRKIQGDGAALQERLCATYRLCHPEELVLLGHSLGIPWAPLSSCPSQALKLAGCLSQLHSGLFLYQGLLKALEGISPELGPTLDKLQLDVADFATTIWQQMEELGMAPALQPTQGAMPAFASAFQRRAGGVLVASHLQSFLEVSYRVLRHLAQP |
| 10 % of hG-CSF |  | G-CSF variant K16/34/40R Q120K S142K, non-conjugated (ligand) TPLGPASSLPQSFLLRCLEQVRKIQGDGAALQERLCATYRLCHPEELVLLGHSLGIPWAPLSSCPSQALQLAGCLSQLHSGLFLYQGLLQALEGISPELGPTLDTLQLDVADFATTIWQKMEELGMAPALQPTQGAMPAFAKAFQRRAGGVLVASHLQSFLEVSYRVLRHLAQP |
| 20 % of hG-CSF |  | G-CSF variant K16/34/40R Q70K Q90K Q120K, non-conjugated (ligand) TPLGPASSLPQSFLLRCLEQVRKIQGDGAALQERLCATYRLCHPEELVLLGHSLGIPWAPLSSCPSQALKLAGCLSQLHSGLFLYQGLLKALEGISPELGPTLDTLQLDVADFATTIWQKMEELGMAPALQPTQGAMPAFASAFQRRAGGVLVASHLQSFLEVSYRVLRHLAQP |
|  | 4 % of hG-CSF | G-CSF variant K16/34/40R Q70K Q90K T105K conjugated to SPA-PEG 5000 (ligand, SPA-PEG 5000 conjugated to the available PEGylation sites) TPLGPASSLPQSFLLRCLEQVRKIQGDGAALQERLCATYRLCHPEELVLLGHSLGIPWAPLSSCPSQALKLAGCLSQLHSGLFLYQGLLKALEGISPELGPTLDKLQLDVADFATTIWQQMEELGMAPALQPTQGAMPAFASAFQRRAGGVLVASHLQSFLEVSYRVLRHLAQP |
|  | 2 % of hG-CSF | G-CSF variant K16/34/40R Q120K S142K conjugated to SPA-PEG 5000 (ligand, SPA-PEG 5000 conjugated to the available PEGylation sites) TPLGPASSLPQSFLLRCLEQVRKIQGDGAALQERLCATYRLCHPEELVLLGHSLGIPWAPLSSCPSQALQLAGCLSQLHSGLFLYQGLLQALEGISPELGPTLDTLQLDVADFATTIWQKMEELGMAPALQPTQGAMPAFAKAFQRRAGGVLVASHLQSFLEVSYRVLRHLAQP |

Target: T1, human G-CSF receptor
Assay: cell-based or functional assay
Remark: another data set of the same source

| EC50 [nM] | Binder |
| --- | --- |
| 0.03 | non-conjugated hG-CSF (Neupogen®) (ligand) MTPLGPASSLPQSFLLKCLEQVRKIQGDGAALQEKLCATYKLCHPEELVLLGHSLGIPWAPLSSCPSQALQLAGCLSQLHSGLFLYQGLLQALEGISPELGPTLDTLQLDVADFATTIWQQMEELGMAPALQPTQGAMPAFASAFQRRAGGVLVASHLQSFLEVSYRVLRHLAQP |
